US20200024316A1 (GENOIMMUNE THERAPEUTICS, published 2020)

B1: wild-type peptide TLISSLRPI (peptide)
peptide: TLISSLRPI
notes: Made by solid phase synthesis, purified by reverse phase HPLC, purity >90%
B2: mutant peptide TLISSLMPI (peptide)
peptide: TLISSLMPI
notes: Made by solid phase synthesis, purity >90%; also called peptide (a); tumor antigen peptide

Target: T1, HLA-A0201 on T2 cells (human)
T1 construct: MHC class I molecule on T2 cells; also called HLA-A0201 molecule; HLA-A2
Experiment: T2 cell HLA-A0201 assay, flow cytometry with FITC anti-HLA-A0201 mAb, peptide 100 µM
Method: Cells were collected by centrifugation of the cell culture at 200 g for 5 minutes. […] The mean fluorescence intensity (MFI) was then detected and analyzed by flow cytometer (BD FACSJazz™) and its software. The fluorescence index (FI) was calculated by using the following formula:

| Binder | Average fluorescence intensity | FI (fluorescence index) |
| --- | --- | --- |
| B1 | 672 | 1.99 |
| TMISSLMPI [variant peptide TMISSLMPI] | 701 | 2.12 |
| TLISSLMPV [variant peptide TLISSLMPV] | 714 | 2.18 |
| TLISSLMPL [variant peptide TLISSLMPL] | 692 | 2.08 |
| B2 | 683 | 2.04 |
| TMISSLMPV [variant peptide TMISSLMPV] | 776 | 2.46 |
| TMISSLMPL [variant peptide TMISSLMPL] | 764 | 2.4 |
